Results reported in publication PMC12234153.

Target: STAT3 (UniProt P42227)
Test: anti-FLAG co-IP, anti-HA blot
Conditions: reference: wild type SMAD2-FLAG; sites S255

binding against the reference: weaker
Substance: SMAD2 (from UniProt Q15796) S255A
